Values quoted from earlier work in publication PMC7687155.
pKd: −log10 of the molar value.

Target: Sep15 (Homo sapiens) (UniProt O60613)
Sequence (O60613 32-165): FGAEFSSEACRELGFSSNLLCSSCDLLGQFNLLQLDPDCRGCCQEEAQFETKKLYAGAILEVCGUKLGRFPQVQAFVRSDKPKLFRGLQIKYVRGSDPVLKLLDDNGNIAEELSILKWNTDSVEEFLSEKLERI

Chain of UGGT1 (Q9NYU2 43-1555): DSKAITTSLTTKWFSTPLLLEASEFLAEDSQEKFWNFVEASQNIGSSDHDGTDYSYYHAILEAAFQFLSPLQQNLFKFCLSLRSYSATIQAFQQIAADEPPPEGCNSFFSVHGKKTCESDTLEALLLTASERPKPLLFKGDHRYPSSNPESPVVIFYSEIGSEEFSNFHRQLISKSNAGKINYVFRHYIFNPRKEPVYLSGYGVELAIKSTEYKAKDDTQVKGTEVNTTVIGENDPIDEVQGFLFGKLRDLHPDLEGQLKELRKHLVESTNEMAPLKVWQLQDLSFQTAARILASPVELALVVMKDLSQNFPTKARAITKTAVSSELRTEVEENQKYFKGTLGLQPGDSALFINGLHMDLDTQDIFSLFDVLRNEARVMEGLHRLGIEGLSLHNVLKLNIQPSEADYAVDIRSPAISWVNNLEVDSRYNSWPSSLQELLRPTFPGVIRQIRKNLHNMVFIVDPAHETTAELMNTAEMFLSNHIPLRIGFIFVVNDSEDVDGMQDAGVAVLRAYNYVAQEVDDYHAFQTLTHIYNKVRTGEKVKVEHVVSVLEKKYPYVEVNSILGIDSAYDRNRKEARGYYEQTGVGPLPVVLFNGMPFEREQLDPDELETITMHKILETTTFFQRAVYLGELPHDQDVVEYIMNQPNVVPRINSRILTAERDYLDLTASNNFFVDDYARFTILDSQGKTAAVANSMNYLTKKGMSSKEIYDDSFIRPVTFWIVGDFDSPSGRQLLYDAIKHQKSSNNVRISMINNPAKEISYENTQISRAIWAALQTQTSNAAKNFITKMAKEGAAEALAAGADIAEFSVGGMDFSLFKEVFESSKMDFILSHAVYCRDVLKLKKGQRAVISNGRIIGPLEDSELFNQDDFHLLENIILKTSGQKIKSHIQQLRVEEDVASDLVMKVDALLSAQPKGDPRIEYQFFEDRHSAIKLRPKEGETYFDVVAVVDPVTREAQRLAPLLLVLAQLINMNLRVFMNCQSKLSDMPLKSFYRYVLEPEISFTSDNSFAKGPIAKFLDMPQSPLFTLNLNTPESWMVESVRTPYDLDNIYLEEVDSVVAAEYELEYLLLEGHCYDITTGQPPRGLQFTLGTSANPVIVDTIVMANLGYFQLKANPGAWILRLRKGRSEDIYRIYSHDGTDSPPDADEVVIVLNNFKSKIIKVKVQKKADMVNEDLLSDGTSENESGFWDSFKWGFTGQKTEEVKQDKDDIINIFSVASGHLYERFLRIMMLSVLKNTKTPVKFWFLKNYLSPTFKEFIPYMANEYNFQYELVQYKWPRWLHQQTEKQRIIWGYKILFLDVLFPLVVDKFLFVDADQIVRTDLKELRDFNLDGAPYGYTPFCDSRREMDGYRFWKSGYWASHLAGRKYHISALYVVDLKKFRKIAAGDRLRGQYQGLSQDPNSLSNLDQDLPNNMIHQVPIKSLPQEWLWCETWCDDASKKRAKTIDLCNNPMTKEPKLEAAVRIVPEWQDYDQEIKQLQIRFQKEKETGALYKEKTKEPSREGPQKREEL

pKd: 7.70
Substance: UGGT1 (from UniProt Q9NYU2)
